The source of these data is paper PMC12446771, “Proximity-dependent proteomics and network analysis of adenylyl cyclase isoforms 5, 6, and 9 in cardiomyocytes” (The Journal of Biological Chemistry, 2025).

This series concerns the molecule itself. Put plainly: immunogold EM spatial mapping (univariate Ripley's K-function); intact apical plasma membrane sheets of BHK cells expressing AC5-YFP or AC6-RFP, 4.5 nm gold on anti-YFP or anti-RFP, TEM at 100,000×.

The term stoichiometry N denotes the number of molecules, sites or subunits per partner or assembly.

B1: AC5-YFP (enzyme)
chain: not shown
notes: adenylyl cyclase type 5; printed as AC5-YFP in the results and YFP-AC5 in the methods; also called YFP-AC5; source: BHK cells, transfected, on intact apical plasma membrane sheets
Turning to B1, the “stoichiometry N” value turned out to be 2.
